Consider 26 molecules from patent US20220204611A1 (Amgen, published 2022).

Positions count from the first letter of the chain named.

T1: human TREM2 (human, UniProt Q9NZC2 19-174, limits assumed)
T1 sequence: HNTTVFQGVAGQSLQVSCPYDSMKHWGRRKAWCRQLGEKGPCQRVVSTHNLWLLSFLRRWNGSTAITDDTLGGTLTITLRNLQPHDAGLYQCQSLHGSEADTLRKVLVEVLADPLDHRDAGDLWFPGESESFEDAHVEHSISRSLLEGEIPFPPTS

T2: human TREM2 on cells (human, UniProt Q9NZC2 19-230)
T2 sequence: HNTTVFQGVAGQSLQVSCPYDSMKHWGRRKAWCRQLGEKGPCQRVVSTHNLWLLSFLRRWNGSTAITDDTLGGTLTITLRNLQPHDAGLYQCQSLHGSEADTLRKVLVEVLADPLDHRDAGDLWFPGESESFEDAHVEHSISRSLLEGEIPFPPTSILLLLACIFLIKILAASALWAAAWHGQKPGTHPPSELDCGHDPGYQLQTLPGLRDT

B1: V36 (Fab, V domains shown)
VH: EVQLVQSGAEVKKPGESLKISCKGSGYSFTSYWLAWVRQMPGKGLEWMGIIYPGDSDTRYSPSFQGQVTISADKSISTAYLQWSSLKASDTAMYFCARSRTFYYDSSDYFDYWGQGTLVTVSS
VL: DIQMTQSPSSVSASVGDRVTITCRASQGISSWLAWYQQKPGKAPKLLIYAASSRQNGVPSRFSGSGSGTDFTLTISSLQPEDFATYFCQQADSYPRTFGQGTKLEIK
B2: V76 (Fab, V domains shown)
VH: B1 VH with T30G, L34I, S63E, S99Q, F110S
VL: B1 VL with R54L, N56K, T69R, Y94F
B3: V73 (Fab, V domains shown)
VH: B1 VH with T30G, L34I, S63G, S99G
VL: B1 VL
B4: V53 (Fab, V domains shown)
VH: B1 VH with L34I, S63H, S99Q
VL: B1 VL with R54L, Y94F
B5: V88 (Fab, V domains shown)
VH: B1 VH with T30G, L34I, S99Q
VL: B1 VL with S53R, R54L, N56R, Y94S
B6: V62 (Fab, V domains shown)
VH: B1 VH with T30G, L34I, S61A, S99Q, D108G
VL: B1 VL with R54L, N56R, Q89G, Y94F
B7: V61 (Fab, V domains shown)
VH: B1 VH with T30S, L34I, S61N, S99G
VL: B1 VL with R54L, Q55V, Y94L
B8: V60 (Fab, V domains shown)
VH: B1 VH with S28H, L34I, T58V, S99Q, F110S
VL: B1 VL with R54L, N56R, Q89G, Y94F
B9: V63 (Fab, V domains shown)
VH: B1 VH with T30R, L34I
VL: B1 VL with R54L, N56R, S93R, Y94F
B10: V84 (Fab, V domains shown)
VH: B1 VH with S28G, L34I, S99Q, F110S
VL: B1 VL with A50G, R54L, Y94F
B11: V77 (Fab, V domains shown)
VH: B1 VH with L34I, S99Q
VL: B1 VL with Y94F
B12: V49 (Fab, V domains shown)
VH: B1 VH with T30N, L34I, I50T, Y60L
VL: B1 VL
B13: V52 (Fab, V domains shown)
VH: B1 VH with T30E, L34I, S99G
VL: B1 VL with R54L, N56R, S93R, Y94F
B14: V85 (Fab, V domains shown)
VH: B1 VH with T30R, L34I, I50T
VL: B1 VL with Y94F
B15: V51 (Fab, V domains shown)
VH: B1 VH with L34I, T58V, S99G, Y112N
VL: B1 VL with Y94F
B16: V40 (Fab, V domains shown)
VH: B1 VH with T30G, L34I, T58V, S99Q, F110S
VL: B1 VL with R54L, N56L, S93R, Y94F
B17: V86 (Fab, V domains shown)
VH: B1 VH with T30G, Q65E
VL: B1 VL with Y94F
B18: V41 (Fab, V domains shown)
VH: B1 VH with L34I, I50T, S99Q
VL: B1 VL with R54L, Y94F
B19: V48 (Fab, V domains shown)
VH: B1 VH with T30G, L34I, T58V, S99M
VL: B1 VL with R54L, N56T, Y94L
B20: V74 (Fab, V domains shown)
VH: B1 VH with T30A, L34I, T58V, S99G
VL: B1 VL with R54L, N56L, Y94F
B21: V75 (Fab, V domains shown)
VH: B1 VH with L34I, S99G
VL: B1 VL with R54L, N56A
B22: V87 (Fab, V domains shown)
VH: B1 VH with T30R, L34I, T58V, S63D
VL: B1 VL with R54L, N56W, Y94F
B23: V72 (Fab, V domains shown)
VH: B1 VH with L34I, A35G, S99G
VL: B1 VL with R54L, Q55V
B24: V89 (Fab, V domains shown)
VH: B1 VH with L34I, S99Q
VL: B1 VL with R54L, Y94H
B25: V37 (Fab, V domains shown)
VH: B1 VH with F29H, L34I, Q65A
VL: B1 VL with R54L, N56W
B26: 12G10 (antibody, human IgG2, V domains shown)
VH: EVQLLESGGGLVQPGGSLRLSCAASGFTFSSYAMSWVRQAPGKGLEWVSAIGGGGVSTYCADSVKGRFTISRDNSKNTLYLQMNSLRAEDTAVYYCAKFYIAVAGSHFDYWGQGTLVTVSS
VL: QAVPTQPSSLSASPGVLASLTCTLRSGINVGTYRIYWYQQKPGSPPQYLLRYKSDSDKQQGSGVPSRFSGSKDASANAGILLISGLQSEDEADYYCMIWYSSAVVFGGGTKLTVL

In one assay the target is T1, human TREM2. Put plainly: yeast-displayed Fab FACS, 2nd screen 10 nM.
As for B1, the “binding signal fold over 6E7 parental” value came out at 3.44 fold.
The same measure, in the same setting: for B2 the value was 4.93 fold; for B3, 5.44 fold; for B4, 1.17 fold.
Still for that read-out and setting: the value for B5 was 5.3 fold.
As for B6, the “binding signal fold over 6E7 parental” value was found to be 2.89 fold.
The same measure, in the same setting: the value for B7 was 5.22 fold.
For B8, the “binding signal fold over 6E7 parental” value was determined as 3.63 fold.
The same measure, in the same setting: for B9 the value was 3.71 fold.
On the same count and under the same terms, the value for B10 was 1.62 fold.
As for B11, the “binding signal fold over 6E7 parental” value came to 1.38 fold.
Still for that read-out and setting: the value for B12 was 6.58 fold; that for B13 was 3.09 fold.
The same measure, in the same setting: for B14 the value was 5.37 fold; for B15, 3.18 fold; for B16, 4.16 fold.
Still for that read-out and setting: for B17 the value was 5.02 fold; for B18, 1.72 fold.
In the case of B19, the “binding signal fold over 6E7 parental” value was 2.54 fold.
On the same count and under the same terms, for B20 the value was 4.01 fold; for B21, 4.52 fold; for B22, 3.93 fold.
As for B23, the “binding signal fold over 6E7 parental” value came to 4.01 fold.
The same measure, in the same setting: for B24 the value was 1.46 fold; for B25, 3.49 fold.

Another assay deals with T1, human TREM2. Put plainly: yeast-displayed Fab FACS, 2nd screen 2 nM.
For the molecule B1, the “binding signal fold over 6E7 parental” value was 4 fold.
The same measure, in the same setting: for B2 the value was 4.34 fold.
On the same count and under the same terms, the value for B3 was 4.17 fold.
Same read-out and setting: the value for B4 was 0.66 fold; that for B5 was 5.57 fold; that for B6 was 1.87 fold.
Turning to B7, the “binding signal fold over 6E7 parental” value was 3.63 fold.
Still for that read-out and setting: the value for B8 was 3.35 fold; that for B9 was 4.91 fold.
On the same count and under the same terms, for B10 the value was 1.45 fold; for B11, 0.83 fold; for B12, 5.02 fold.
The same measure, in the same setting: the value for B13 was 1.78 fold.
Regarding B14, the “binding signal fold over 6E7 parental” value worked out at 5.41 fold.
Still for that read-out and setting: for B15 the value was 1.83 fold; for B16, 3.41 fold.
Turning to B17, the “binding signal fold over 6E7 parental” value came to 5.17 fold.
The same measure, in the same setting: for B18 the value was 0.58 fold; for B19, 2.3 fold.
On the same count and under the same terms, the value for B20 was 2.54 fold; that for B21 was 3.74 fold.
The same measure, in the same setting: the value for B22 was 4.86 fold; that for B23 was 2.5 fold.
On to B24, for which the “binding signal fold over 6E7 parental” value was determined as 0.94 fold.
Same read-out and setting: the value for B25 was 3.69 fold.

The target of a further assay is T2, human TREM2 on cells. Briefly: cell-based or functional assay.
Consider B26, for which the “pSyk EC50” value worked out at 0.4 nM.

A further assay addresses T1, human TREM2. Briefly: yeast-displayed Fab FACS, 1st screen 10 nM.
With B1, the “binding signal fold over 6E7 parental” value was determined as 3.38 fold.
B2: the “binding signal fold over 6E7 parental” value was found to be 4.57 fold.
Still for that read-out and setting: the value for B3 was 5.12 fold.
On the same count and under the same terms, the value for B4 was 1.25 fold; that for B5 was 4.92 fold; that for B6 was 2.49 fold.
As for B7, the “binding signal fold over 6E7 parental” value was determined as 5.08 fold.
Take B8: the “binding signal fold over 6E7 parental” value worked out at 3.26 fold.
On the same count and under the same terms, the value for B9 was 3.76 fold; that for B10 was 1.44 fold.
On the same count and under the same terms, for B11 the value was 1.43 fold; for B12, 6.51 fold.
On the same count and under the same terms, for B13 the value was 3 fold.
B14: the “binding signal fold over 6E7 parental” value was determined as 5.41 fold.
In the case of B15, the “binding signal fold over 6E7 parental” value is 2.81 fold.
The same measure, in the same setting: the value for B16 was 4.48 fold; that for B17 was 4.8 fold.
Same read-out and setting: for B18 the value was 1.74 fold.
The same measure, in the same setting: the value for B19 was 2.42 fold; that for B20 was 3.94 fold.
For the molecule B21, the “binding signal fold over 6E7 parental” value was 4.64 fold.
The same measure, in the same setting: for B22 the value was 3.84 fold; for B23, 3.64 fold.
On to B24, for which the “binding signal fold over 6E7 parental” value was found to be 1.33 fold.
The same measure, in the same setting: the value for B25 was 3.46 fold.
